Experimental data published in the supplement of paper PMC10598134.
± gives the standard deviation.

Assay: collision cross section of modified peptide (TIMS, N2, iRT-aligned); higher = larger / more extended gas-phase ion
Summary of the method: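 On a timsTOF Pro/HT (dda-PASEF, nitrogen, ~2.4 mbar), synthetic peptide pools were analysed after a 120-min nanoflow C18 separation at 60 °C and identified in MaxQuant. Three reference ions served for 1/K0 calibration, with run-wise alignment to the median iRT peptide deviation. Collision cross section comes from the Mason-Schamp equation, using the most abundant feature per charge state averaged over 1–3 technical replicates.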

[1] = charge state: 3, modification: Methyl (R)
[2] = charge state: 3, modification: Methyl (K)
[3] = charge state: 2, modification: Succinyl
[4] = charge state: 2, modification: Citrullination (R)
[5] = charge state: 2, modification: Trimethyl (K)
[6] = charge state: 3, modification: Trimethyl (K)
[7] = charge state: 2, modification: Formyl
[8] = charge state: 2, modification: Dimethyl (K)
[9] = charge state: 3, modification: Dimethyl (K)
[10] = charge state: 3, modification: Malonyl
[11] = charge state: 2, modification: Crotonyl
[12] = charge state: 2, modification: HexNAc (ST)
[13] = charge state: 3, modification: Formyl
[14] = charge state: 2, modification: Glutarylation
[15] = charge state: 3, modification: Glutarylation
[16] = charge state: 2, modification: Biotin
[17] = charge state: 3, modification: Biotin
[18] = charge state: 2, modification: Propionyl
[19] = charge state: 2, modification: Butyryl
[20] = charge state: 3, modification: Butyryl
[21] = charge state: 2, modification: Methyl (R)
[22] = charge state: 3, modification: Citrullination (R)
[23] = charge state: 2, modification: hydroxyisobutyryl
[24] = charge state: 3, modification: hydroxyisobutyryl
[25] = charge state: 2, modification: Acetyl (K)
[26] = charge state: 3, modification: Acetyl (K)
[27] = charge state: 2, modification: Phospho (Y)
[28] = charge state: 3, modification: Phospho (Y)
[29] = charge state: 2, modification: Nitro (Y)
[30] = charge state: 2, modification: Methyl (K)
[31] = charge state: 2, modification: GlyGly (K)
[32] = charge state: 3, modification: GlyGly (K)

GGGYGGDRGGYGGDR [_GGGYGGDR(Methyl (R))GGYGGDR_]
collision cross section [1]: 455.76 ± 1.3 Å²

IDLPAENSNSETIIITGKR [_IDLPAENSNSETIIITGK(Methyl (K))R_]
collision cross section [2]: 568.48 ± 0.62 Å²

VNIGQGSHPQKVK [_VNIGQGSHPQK(Succinyl)VK_]
collision cross section [3]: 423.92 ± 1.1 Å²
collision cross section (charge state: 3, modification: Succinyl): 481.33 ± 2 Å²

GTGRGGGGGGGGGAPR [_GTGR(Citrullination (R))GGGGGGGGGAPR_]
collision cross section [4]: 349.34 ± 0.64 Å²

INNFSADIKDSK [_INNFSADIK(Trimethyl (K))DSK_]
collision cross section [5]: 411.01 ± 0.61 Å²
collision cross section [6]: 459.74 ± 1.8 Å²

VFIGNLNTLVVKK [_VFIGNLNTLVVK(Formyl)K_]
collision cross section [7]: 407.78 ± 0.74 Å²

VETTVTSLKTK [_VETTVTSLK(Dimethyl (K))TK_]
collision cross section [8]: 385.99 ± 0.37 Å²
collision cross section [9]: 450.04 ± 3.7 Å²

KYEEIDNAPEER [_K(Formyl)YEEIDNAPEER_]
collision cross section [7]: 405.5 ± 0.74 Å²

EPFSGDHSADGFEVTSR [_EPFS(HexNAc (ST))GDHSADGFEVTSR_]
collision cross section (charge state: 3, modification: HexNAc (ST)): 513.98 ± 1.8 Å²

GSLGAQKLANTCFNEIEK [_GSLGAQK(Malonyl)LANTCFNEIEK_]
collision cross section (charge state: 2, modification: Malonyl): 466.18 Å²
collision cross section [10]: 511.38 Å²

LFVGGIKEDTEEHHLR [_LFVGGIK(Methyl (K))EDTEEHHLR_]
collision cross section [2]: 545.41 Å²

ANLEKAQAELVGTADEATR [_ANLEK(Crotonyl)AQAELVGTADEATR_]
collision cross section [11]: 478.55 ± 1.5 Å²
collision cross section (charge state: 3, modification: Crotonyl): 577.75 ± 0.5 Å²

APVGSVVSVPSQSSASSDK [_APVGSVVSVPSQS(HexNAc (ST))SASSDK_]
collision cross section [12]: 464.2 ± 0.14 Å²

LGNDFHTNKR [_LGNDFHTNK(Formyl)R_]
collision cross section [7]: 366.48 ± 1.5 Å²
collision cross section [13]: 438.07 ± 2.4 Å²

DVNAAIAAIKTK [_DVNAAIAAIK(Gluratylation)TK_]
collision cross section [14]: 410.15 ± 0.99 Å²
collision cross section [15]: 471.67 ± 2.5 Å²

DESFLGKLGGTLAR [_DESFLGK(Biotin)LGGTLAR_]
collision cross section [16]: 424.81 Å²
collision cross section [17]: 506.47 Å²

TQDQISNIKYHEEFEK [_TQDQISNIK(Malonyl)YHEEFEK_]
collision cross section [10]: 548.96 ± 0.016 Å²

IVSGKDYNVTANSK [_IVSGK(Propionyl)DYNVTANSK_]
collision cross section [18]: 411.4 ± 0.64 Å²

LQLEIDQKK [_LQLEIDQK(Butyryl)K_]
collision cross section [19]: 370.32 ± 1.2 Å²

VNIGQGSHPQKVK [_VNIGQGSHPQK(Formyl)VK_]
collision cross section [7]: 425.2 ± 1.4 Å²
collision cross section [13]: 472.74 ± 2.1 Å²

RLPTTGYLVYR [_R(Citrullination (R))LPTTGYLVYR_]
collision cross section [4]: 383.11 ± 0.23 Å²

GSLEKGSPEDK [_GSLEK(Succinyl)GSPEDK_]
collision cross section [3]: 366.43 ± 0.51 Å²

SSGPGGQNVNKVNSK [_SSGPGGQNVNK(Butyryl)VNSK_]
collision cross section [19]: 405.84 ± 0.57 Å²
collision cross section [20]: 443.95 ± 2 Å²

GEVQVSDKER [_GEVQVSDK(Crotonyl)ER_]
collision cross section [11]: 363.4 ± 0.8 Å²

GGSAGGRGFFR [_GGSAGGR(Methyl (R))GFFR_]
collision cross section [21]: 365.18 ± 0.78 Å²
collision cross section [1]: 426.87 ± 4.1 Å²

DFAFYNPRLQGK [_DFAFYNPR(Citrullination (R))LQGK_]
collision cross section [4]: 400.16 ± 0.22 Å²
collision cross section [22]: 473.76 Å²

INNFSADIKDSK [_INNFSADIK(Biotin)DSK_]
collision cross section [16]: 419.19 Å²

PRGVISTPVIR [_PR(Methyl (R))GVISTPVIR_]
collision cross section [21]: 373.92 Å²
collision cross section [1]: 447.15 ± 2.7 Å²

TLDEILQEKK [_TLDEILQEK(Biotin)K_]
collision cross section [16]: 403.31 Å²

KDYQPGITFIVVQK [_KDYQP(Hydroxyproline)GITFIVVQK_]
collision cross section (charge state: 3, modification: Hydroxyproline): 502.4 Å²

AGRGFSLEELR [_AGR(Methyl (R))GFSLEELR_]
collision cross section [21]: 379.24 Å²
collision cross section [1]: 460.11 ± 2.4 Å²

PASGAGAGAGAGKR [_PASGAGAGAGAGK(Trimethyl (K))R_]
collision cross section [5]: 392.96 ± 2.2 Å²
collision cross section [6]: 465.02 ± 1.8 Å²

SKLLFSNTAAQK [_SK(Trimethyl (K))LLFSNTAAQK_]
collision cross section [5]: 395.61 ± 0.017 Å²
collision cross section [6]: 446.07 ± 2.4 Å²

LTEKELAEAASK [_LTEK(hydroxyisobutyryl)ELAEAASK_]
collision cross section [23]: 392.48 ± 2 Å²
collision cross section [24]: 455.87 ± 2.2 Å²

VDIDAPDVSIEGPDAKLK [_VDIDAPDVSIEGPDAK(Acetyl (K))LK_]
collision cross section [25]: 462.55 ± 2.9 Å²

GFCFITYTDEEPVKK [_GFCFITYTDEEPVK(Formyl)K_]
collision cross section [7]: 450.51 Å²

DSINFLDHINGKK [_DSINFLDHINGK(Acetyl (K))K_]
collision cross section [26]: 470.59 Å²

SGNLTEDDKHNNAK [_SGNLTEDDK(Propionyl)HNNAK_]
collision cross section [18]: 423.13 ± 0.36 Å²
collision cross section (charge state: 3, modification: Propionyl): 471.16 Å²

LAEEENKAK [_LAEEENK(Gluratylation)AK_]
collision cross section [14]: 353.09 ± 0.078 Å²

PGGEGPQCEKTTDVK [_PGGEGPQCEK(Methyl (K))TTDVK_]
collision cross section [2]: 460.64 Å²

ITLSKHQNVQLPR [_ITLSK(Gluratylation)HQNVQLPR_]
collision cross section [14]: 422.98 ± 0.48 Å²
collision cross section [15]: 526.02 ± 27 Å²

LLFSNTAAQKLR [_LLFSNTAAQK(Biotin)LR_]
collision cross section [16]: 418.21 ± 1.1 Å²
collision cross section [17]: 503.51 Å²

LQLEIDQKK [_LQLEIDQK(Formyl)K_]
collision cross section [7]: 362.42 ± 1 Å²

GSLEKGSPEDK [_GSLEK(Formyl)GSPEDK_]
collision cross section [7]: 358.29 ± 0.88 Å²

YVHADAPTNK [_Y(Phospho (Y))VHADAPTNK_]
collision cross section [27]: 354.72 ± 0.065 Å²
collision cross section [28]: 420.4 ± 1 Å²

PASGAGAGAGAGKR [_PASGAGAGAGAGK(Gluratylation)R_]
collision cross section [14]: 357.87 ± 1.2 Å²
collision cross section [15]: 467.6 ± 2 Å²

GNDISSGTVLSDYVGSGPPK [_GNDISSGTVLSDY(Nitro (Y))VGSGPPK_]
collision cross section [29]: 466.4 ± 0.42 Å²

GVQYLNEIK [_GVQY(Nitro (Y))LNEIK_]
collision cross section [29]: 353.34 ± 0.19 Å²

LGSPSGKTGTCR [_LGSPSGK(Gluratylation)TGTCR_]
collision cross section [14]: 369.43 ± 0.9 Å²

IISSIEQKEENK [_IISSIEQK(Dimethyl (K))EENK_]
collision cross section [8]: 410.65 ± 1.1 Å²
collision cross section [9]: 464.23 ± 1.4 Å²

INNFSADIKDSK [_INNFSADIK(hydroxyisobutyryl)DSK_]
collision cross section [23]: 408.19 ± 0.53 Å²
collision cross section [24]: 466.44 ± 1.1 Å²

ASNAAVKLAESK [_ASNAAVK(Methyl (K))LAESK_]
collision cross section [30]: 380.84 ± 0.65 Å²
collision cross section [2]: 450.44 ± 4.8 Å²

DYSQPTAAATVQDIK [_DYSQPTAAAT(HexNAc (ST))VQDIK_]
collision cross section [12]: 449.73 ± 0.61 Å²

AEGYEVAHGGR [_AEGY(Phospho (Y))EVAHGGR_]
collision cross section [27]: 370.65 ± 0.064 Å²
collision cross section [28]: 440.52 Å²

IGNSYFKEEK [_IGNSYFK(Methyl (K))EEK_]
collision cross section [30]: 373.94 ± 0.87 Å²
collision cross section [2]: 450.33 ± 4.8 Å²

VPTTEKPTVTVNFR [_VPTTEK(Gluratylation)PTVTVNFR_]
collision cross section [14]: 428.25 ± 0.47 Å²
collision cross section [15]: 516.1 ± 2.5 Å²

GTVPDDAVEALADSLGKK [_GTVPDDAVEALADSLGK(GlyGly (K))K_]
collision cross section [31]: 485.77 ± 1.3 Å²
collision cross section [32]: 534.99 ± 1.1 Å²

VTLEVGKVIQQGR [_VTLEVGK(Acetyl (K))VIQQGR_]
collision cross section [25]: 405.94 ± 0.47 Å²
collision cross section [26]: 479.97 ± 2.5 Å²

DLSTVEALQNLKNLK [_DLSTVEALQNLK(GlyGly (K))NLK_]
collision cross section [31]: 473.91 ± 4.8 Å²
collision cross section [32]: 514.39 ± 5.7 Å²

LLFSNTAAQKLR [_LLFSNTAAQK(Dimethyl (K))LR_]
collision cross section [8]: 419.08 ± 0.75 Å²
collision cross section [9]: 473.77 ± 2.6 Å²

AIEINPDSAQPYK [_AIEINPDSAQPY(Phospho (Y))K_]
collision cross section [27]: 402.87 ± 0.061 Å²

IVFSGNLFQHQEDSKK [_IVFSGNLFQHQEDSK(Butyryl)K_]
collision cross section [19]: 504.05 ± 1 Å²
collision cross section [20]: 542.63 ± 1.2 Å²

LFVGGIKEDTEEHHLR [_LFVGGIK(GlyGly (K))EDTEEHHLR_]
collision cross section [31]: 499.18 Å²
collision cross section [32]: 544.61 ± 1.1 Å²

PGGEGPQCEKTTDVK [_PGGEGPQCEK(Butyryl)TTDVK_]
collision cross section [19]: 421.37 ± 0.77 Å²

AAHGRGALAEAAR [_AAHGR(Citrullination (R))GALAEAAR_]
collision cross section [4]: 378.79 ± 0.65 Å²
collision cross section [22]: 458.38 ± 1.8 Å²

VGEFSGANKEK [_VGEFSGANK(Gluratylation)EK_]
collision cross section [14]: 364.67 ± 0.089 Å²

GEYFGEK [_GEY(Phospho (Y))FGEK_]
collision cross section [27]: 321.93 ± 0.65 Å²
